Patent US20260364215A1, “Radiopharmaceutical Compositions Targeting Ephrin Type-A Receptor 2 and Uses Thereof” (PeptiDream Inc., priority 2022, published 2026)
Numbered stars: 1 amine (or outer) side, 2 acyl side, 3 side chain; on linkers, the order of the positions; unused ones are H or OH. Bridge positions count the residues as written; N and C are the ends. Square brackets hold non-standard residues; d marks the D form. Side chains are listed from the residue outwards. Peptide text beside a SMILES is read from it. * marks the point of attachment. DOTA(Lu) = O=C1CN2CCN3CCN(CC(=O)*)CCN(CC2)CC(=O)[O][Lu]([O]1)[O]C(=O)C3; DOTA = O=C(O)CN1CCN(CC(=O)O)CCN(CC(=O)*)CCN(CC(=O)O)CC1; Trp(1-Me,7-Cl) = Cn1cc(C[C@H](N)C(=O)O)c2cccc(Cl)c21; dPhe(3-CONH2) = NC(=O)c1cccc(C[C@@H](N)C(=O)O)c1; Piperazinyl(4-CH2COOH) = O=C(O)CN1CCN(*)CC1; Trp(1-Me) = Cn1cc(C[C@H](N)C(=O)O)c2ccccc21; PEG8 = NCCOCCOCCOCCOCCOCCOCCOCCOCCC(=O)O; NMe3Pal = CN[C@@H](Cc1cccnc1)C(=O)O; NMeF = CN[C@@H](Cc1ccccc1)C(=O)O; hArg = N=C(N)NCCCC[C@H](N)C(=O)O; Gly(cBu) = N[C@H](C(=O)O)C1CCC1; NMeE = CN[C@@H](CCC(=O)O)C(=O)O; Aad = N[C@@H](CCCC(=O)O)C(=O)O; AEEA = NCCOCCOCC(=O)O; CO = O=C([*:1])[*:2]; βAla = NCCC(=O)O

Experiments:
[1] = Plasma stability (% remaining and T1/2 of test compound in human plasma; Table C1); type: in vitro ADME; conditions: for % Remaining Human: 0 min; for remaining at 2 h: 120 min
Procedure: (§1) The % remaining of test compound after incubation in plasma was calculated using the following equation:
(§2) % Remaining=100×(PAR(t)/PAR(t0)), where PAR is the peak area ratio of analyte versus internal standard (IS)

[2] = Plasma stability (% remaining of test compound in CD-1 (ICR) mouse plasma at 37 °C; Example C1); type: in vitro ADME; conditions: for % Remaining Mouse: 0 min; for remaining at 2 h, 2 µM: pH 7.4, 120 min; for half-life at 2 µM: pH 7.4, read-out: T1/2 (min) Mouse
Procedure: Example C1. Plasma Stability
The pooled frozen CD-1 (ICR) mouse plasma was thawed in a water bath at 37 °C prior to experiment. Plasma was centrifuged at 4000 rpm for 5 min and the clots were removed if any. pH was adjusted to 7.4±0.1 if required.
Plasma (98 μL) and test compounds (2 μL, 100 μM, in DMSO) or reference compound propantheline bromide (2 μL, 100 μM in 40% v/v MeOH/H2O) were added to the individual wells of a 96-well microtiter plate in duplicate. The plate was incubated at 37 °C. During the incubation, aliquots were withdrawn at 0, 10, 30, 60, 120, and 300 minutes. 100 μL 4% H3PO4 and 800 μL of stop solution (200 ng/mL tolbutamide and 200 ng/mL labetalol in 100% CH3CN) were added to precipitate unwanted proteins. After mixing thoroughly, the quenched aliquots were centrifuged at 4,000 rpm for 20 min. Aliquots (100 μL) of supernatant were transferred to a new plate. The samples were shaken at 800 rpm for 10 min before performing LC-MS/MS analysis.
The analytes were detected by a multiple reaction monitoring method using a SCIEX Triple Quad 6500+ system equipped with an ACQUITY UPLC HSS T3 column (100 Å, 1.8 μm, 2.1 mm×30 mm). Mobile phase A: water with 0.1% formic acid; Mobile phase B: CH3CN with 0.1% formic acid.
as §1, §2

[3] = target: T1, Recombinant Human EphA2 Fc Protein (Homo sapiens, UniProt P29317); assay: Interaction analysis (kinetics, KD) of peptides and conjugates against EphA2 by SPR, Biacore T200, single-cycle kinetics (Examples B15 and B22); type: binding; conditions: conjugates, Biacore T200 according to Example B15, Table B16; read-out: SPR Kd
T1 construct: purchased Elabscience
Summary of the method: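 Biacore T200 SPR with Fc-tagged human EphA2 captured via anti-human antibody; running buffer HBS-P+ pH 7.4 with 1% DMSO, 25 °C. Five serial dilutions of peptide or conjugate run by single-cycle kinetics; KD from ka and kd after baseline subtraction.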

[4] = target: T2, EphA2 (Biotin-Avi-His-EphA2; Fc-EphA2 where the peptide had a biotin) (Homo sapiens, UniProt P29317); assay: Surface plasmon resonance (SPR) peptide binding, Biacore 8K, immobilized EphA2, single cycle kinetics (Example C7); conditions: 25 °C, Langmuir 1:1
T2 construct: His; purchased SinoBiologicals 13926-H27H-B
Procedure: Example C7. Surface Plasmon Resonance (SPR)
For analysis of peptide binding, a Biacore 8K instrument was used utilizing a SA chip. Biotin-Avi-His-EphA2 (SinoBiologicals, 13926-H27H-B) was immobilized on the chip using streptavidin-biotin chemistry at 25 °C in HBS-P+ buffer (10 mM HEPES, 150 mM NaCl, 0.05% Tween-20, pH 7.4) to a level of 1000-2000 RU (dependent on the analyte molecular weight). […] A dilution series of peptides was prepared in this buffer with a final DMSO concentration of 0.1% with a top peptide concentration between 10-100 nM and 9 further 2-fold dilutions. The SPR analysis was run at 25 °C at a flow rate of 30 μL/min in HBS-P+ with 0.1% DMSO running buffer and with a 120 second association and 1,200 second dissociation using single cycle kinetics methodology. All data was analyzed using Biacore Insight Evaluation Software version 4. Data was fitted using a Langmuir 1:1 binding model.

T1 sequence (P29317 24-534 limits assumed): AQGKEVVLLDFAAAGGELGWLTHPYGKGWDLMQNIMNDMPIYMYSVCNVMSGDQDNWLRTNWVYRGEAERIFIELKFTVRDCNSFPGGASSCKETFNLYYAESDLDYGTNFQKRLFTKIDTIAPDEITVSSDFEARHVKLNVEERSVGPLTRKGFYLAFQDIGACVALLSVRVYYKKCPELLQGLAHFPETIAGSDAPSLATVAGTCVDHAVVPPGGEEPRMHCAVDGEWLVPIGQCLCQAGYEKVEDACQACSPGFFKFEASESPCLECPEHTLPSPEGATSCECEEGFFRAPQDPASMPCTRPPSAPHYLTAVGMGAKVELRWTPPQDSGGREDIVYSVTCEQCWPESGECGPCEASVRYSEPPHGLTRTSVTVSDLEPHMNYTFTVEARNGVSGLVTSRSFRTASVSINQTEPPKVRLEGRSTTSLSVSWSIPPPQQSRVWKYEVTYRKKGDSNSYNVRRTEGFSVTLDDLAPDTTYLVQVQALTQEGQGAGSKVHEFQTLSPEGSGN
T2 sequence (P29317 24-534 limits assumed): as above

Structure (SMILES): CC(C)C[C@@H]1NC(=O)[C@H](CC(N)=O)NC(=O)[C@H](Cc2ccccc2)N(C)C(=O)[C@@H](C)NC(=O)CSC[C@@H](C(=O)NCCC(=O)N[C@H](CCCCNC(=O)COCCOCCNC(=O)CCOCCOCCOCCOCCOCCOCCOCCOCCNC(=O)CN2CCN(CC(=O)O)CCN(CC(=O)O)CCN(CC(=O)O)CC2)C(N)=O)NC(=O)[C@H](CCC(=O)O)NC(=O)[C@H]([C@@H](C)O)NC(=O)[C@H](Cc2cn(C)c3ccccc23)NC(=O)[C@H](C(C)C)NC(=O)[C@H](Cc2cn(C)c3ccccc23)NC(=O)[C@H](Cc2ccccc2)N(C)C(=O)[C@H](CCCC(=O)O)NC1=O.[Lu+3] [PDC_EphA2-00001417-C306] ({CH2CO}-[dA][NMeF]NL[Aad][NMeF][Trp(1-Me)]V[Trp(1-Me)]TEC[βAla][dK]([AEEA-PEG8-DOTA])-NH2; thioether N-12)
- half-life [1]: > 4.82 h
- % Remaining Human [1]: 100%
- remaining at 2 h [1]: 99%
- % Remaining Mouse [2]: 100%
- remaining at 2 h, 2 µM [2]: 91%
- half-life at 2 µM [2]: > 289 min
- Kd [3]: 1 to 10 nM

Structure (SMILES): CC(C)C[C@@H]1NC(=O)[C@H](CC(N)=O)NC(=O)[C@H](Cc2cccnc2)N(C)C(=O)[C@@H](C)NC(=O)CSC[C@@H](C(=O)N[C@H](CCCCNC(=O)CN2CCN3CCN4CCN(CC2)CC(=O)[O][Lu]([O]C(=O)C3)[O]C(=O)C4)C(N)=O)NC(=O)[C@H](CCCC(N)=O)NC(=O)[C@H]([C@@H](C)O)NC(=O)[C@H](Cc2cn(C)c3ccccc23)NC(=O)[C@H](CCCCNC(=O)N2CCN(CC(=O)O)CC2)NC(=O)[C@H](Cc2cn(C)c3ccccc23)NC(=O)[C@H](CCC(=O)O)N(C)C(=O)[C@H](CCCC(N)=O)NC1=O [PDC_EphA2-00007196-C302] ({CH2CO}-[dA][NMe3Pal]NL[Aad](NH2)[NMeE][Trp(1-Me)]K([CO-Piperazinyl(4-CH2COOH)])[Trp(1-Me)]T[Aad](NH2)C[dK](DOTA(Lu))-NH2; thioether N-12)
- half-life [1]: > 4.82 h
- % Remaining Human [1]: 100.0%
- remaining at 2 h [1]: 96.3%
- KD [4]: 3.74e-10 M⁻¹
- % Remaining Mouse [2]: 100.0%
- remaining at 2 h, 2 µM [2]: 99.4%
- half-life at 2 µM [2]: > 289 min
- Kd [3]: < 1 nM

Structure (SMILES): CC(C)C[C@@H]1NC(=O)[C@H](CC(N)=O)NC(=O)[C@H](Cc2cccnc2)N(C)C(=O)[C@@H](C)NC(=O)CSC[C@@H](C(=O)N[C@H](CCCCNC(=O)CN2CCN(CC(=O)O)CCN(CC(=O)O)CCN(CC(=O)O)CC2)C(N)=O)NC(=O)[C@H](CCCCNC(=N)N)NC(=O)[C@H]([C@@H](C)O)NC(=O)[C@H](Cc2cn(C)c3ccccc23)NC(=O)[C@H](CCCCNC(=O)N2CCN(CC(=O)O)CC2)NC(=O)[C@H](Cc2cn(C)c3ccccc23)NC(=O)[C@H](CCC(=O)O)N(C)C(=O)[C@H](CCCC(N)=O)NC1=O.[Lu+3] [PDC_EphA2-00008010-C302] ({CH2CO}-[dA][NMe3Pal]NL[Aad](NH2)[NMeE][Trp(1-Me)]K([CO-Piperazinyl(4-CH2COOH)])[Trp(1-Me)]T[hArg]C[dK](DOTA)-NH2; thioether N-12)
- KD [4]: 2.11e-10 M⁻¹
- Kd [3]: < 1 nM

Structure (SMILES): CC(C)C[C@@H]1NC(=O)[C@H](CC(N)=O)NC(=O)[C@H](Cc2cccnc2)N(C)C(=O)[C@@H](C)NC(=O)CSC[C@@H](C(=O)N[C@H](CCCCNC(=O)CN2CCN(CC(=O)O)CCN(CC(=O)O)CCN(CC(=O)O)CC2)C(N)=O)NC(=O)[C@H](CCCC(N)=O)NC(=O)[C@H]([C@@H](C)O)NC(=O)[C@H](Cc2cn(C)c3ccccc23)NC(=O)[C@H](CCCCNC(=O)N2CCN(CC(=O)O)CC2)NC(=O)[C@H](Cc2cn(C)c3ccccc23)NC(=O)[C@H](Cc2ccccc2)N(C)C(=O)[C@H](CCCC(N)=O)NC1=O.[Lu+3] [PDC_EphA2-00008093-C302] ({CH2CO}-[dA][NMe3Pal]NL[Aad](NH2)[NMeF][Trp(1-Me)]K([CO-Piperazinyl(4-CH2COOH)])[Trp(1-Me)]T[Aad](NH2)C[dK](DOTA)-NH2; thioether N-12)
- half-life [1]: > 4.82 h
- % Remaining Human [1]: 100.0%
- remaining at 2 h [1]: 102%
- % Remaining Mouse [2]: 100.0%
- remaining at 2 h, 2 µM [2]: 101%
- half-life at 2 µM [2]: > 289 min
- Kd [3]: < 1 nM

Structure (SMILES): CC(C)C[C@@H]1NC(=O)[C@H](CC(N)=O)NC(=O)[C@H](Cc2cccnc2)N(C)C(=O)[C@@H](C)NC(=O)CSC[C@@H](C(=O)N[C@H](CCCCNC(=O)CN(C)C(=O)CN(C)C(=O)CN(C)C(=O)CN(C)C(=O)CN(C)C(=O)CN(C)C(=O)CN(C)C(=O)CN(C)C(=O)CN(C)C(=O)CN(C)C(=O)CCNC(=O)CN2CCN(CC(=O)O)CCN(CC(=O)O)CCN(CC(=O)O)CC2)C(N)=O)NC(=O)[C@H](CCCC(N)=O)NC(=O)[C@H]([C@@H](C)O)NC(=O)[C@H](Cc2cn(C)c3ccccc23)NC(=O)[C@H](CCCCNC(=O)N2CCN(CC(=O)O)CC2)NC(=O)[C@H](Cc2cn(C)c3ccccc23)NC(=O)[C@H](Cc2ccccc2)N(C)C(=O)[C@H](CCCC(N)=O)NC1=O.[Lu+3] [PDC_EphA2-00008093-C310]
- half-life [1]: > 4.82 h
- % Remaining Human [1]: 100.0%
- remaining at 2 h [1]: 99%
- % Remaining Mouse [2]: 100.0%
- remaining at 2 h, 2 µM [2]: 107%
- half-life at 2 µM [2]: > 289 min
- Kd [3]: < 1 nM

Structure (SMILES): C[C@@H](O)[C@@H]1NC(=O)[C@H](Cc2cn(C)c3ccccc23)NC(=O)[C@H](CCCCNC(=O)N2CCN(CC(=O)O)CC2)NC(=O)[C@H](Cc2cn(C)c3c(Cl)cccc23)NC(=O)[C@H](CCC(=O)O)N(C)C(=O)[C@H](CCCC(N)=O)NC(=O)[C@H](C2CCC2)NC(=O)[C@H](CC(N)=O)NC(=O)[C@H](Cc2cccnc2)N(C)C(=O)[C@@H](Cc2cccc(C(N)=O)c2)NC(=O)CSC[C@@H](C(=O)N[C@H](CCCCNC(=O)CN2CCN(CC(=O)O)CCN(CC(=O)O)CCN(CC(=O)O)CC2)C(N)=O)NC(=O)[C@H](CCCC(N)=O)NC1=O.[Lu+3] [PDC_EphA2-00019440-C302] ({CH2CO}-[dPhe(3-CONH2)][NMe3Pal]N[Gly(cBu)][Aad](NH2)[NMeE][Trp(1-Me,7-Cl)]K([CO-Piperazinyl(4-CH2COOH)])[Trp(1-Me)]T[Aad](NH2)C[dK](DOTA)-NH2; thioether N-12)
- KD [4]: 8.18e-11 M⁻¹
- Kd [3]: < 1 nM

Structure (SMILES): C[C@@H](O)[C@@H]1NC(=O)[C@H](Cc2cn(C)c3ccccc23)NC(=O)[C@H](CCCCNC(=O)N2CCN(CC(=O)O)CC2)NC(=O)[C@H](Cc2cn(C)c3c(Cl)cccc23)NC(=O)[C@H](CCC(=O)O)N(C)C(=O)[C@H](CCCC(N)=O)NC(=O)[C@H](C2CCC2)NC(=O)[C@H](CC(N)=O)NC(=O)[C@H](Cc2cccnc2)N(C)C(=O)[C@@H](Cc2cccc(C(N)=O)c2)NC(=O)CSC[C@@H](C(=O)N[C@H](CCCCNC(=O)CN2CCN(CC(=O)O)CCN(CC(=O)O)CCN(CC(=O)O)CC2)C(N)=O)NC(=O)[C@H](CCCCNC(=N)N)NC1=O.[Lu+3] [PDC_EphA2-00019443-C302] ({CH2CO}-[dPhe(3-CONH2)][NMe3Pal]N[Gly(cBu)][Aad](NH2)[NMeE][Trp(1-Me,7-Cl)]K([CO-Piperazinyl(4-CH2COOH)])[Trp(1-Me)]T[hArg]C[dK](DOTA)-NH2; thioether N-12)
- KD [4]: 2.7e-11 M⁻¹
- Kd [3]: < 1 nM
